The record followed here is patent publication US20220177583A1.

For experiment [1], the target named is human CLDN6 fused to GFP, expressed on engineered HEK293T cells (human) (UniProt P56747). Nature of the experiment: FACS, 293T clone with human CLDN6, 1.5 ug Ab.
Experiment [2] shares this target. Nature of the experiment: FACS, 293T clone with human CLDN6, 0.3 ug Ab. Background: Flow cytometry measures light scatter and fluorescence of single cells or particles in a stream.
Experiment [3] concerns the target T1, mouse CLDN6 fused to GFP, expressed on engineered HEK293T cells (mouse) (UniProt Q9Z262).
T1 sequence (looked up): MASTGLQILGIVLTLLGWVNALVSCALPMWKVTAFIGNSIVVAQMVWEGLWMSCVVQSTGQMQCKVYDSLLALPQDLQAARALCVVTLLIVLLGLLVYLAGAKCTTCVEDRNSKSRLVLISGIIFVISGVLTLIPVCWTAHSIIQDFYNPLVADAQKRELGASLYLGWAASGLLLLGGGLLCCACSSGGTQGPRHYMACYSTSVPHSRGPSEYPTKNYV
Nature of the experiment: FACS, 293T clone with mouse CLDN6.

B1: AB4-chim (antibody, V domains shown)
VH: QVQLQQSGAELARPGASVKMSCKASGYTFTSYTMHWIKQRPGQGQEWIGYINPSSTYTHYIKKFKDKATLTADKSSSTAYMQLRSLTSEDSAVYYCSRGELGGFAYWGQGTLVTVSA
VL: DVVMTQTPLSLPVSLGDQASISCRSSQSLVHSDGNTYLNWYLQKPGQSPKLLIYKVSNRFSGVPDRFSGSGSGTDFTLKIRRVEAEDLGVYFCSQSTHVPYTFGGGTKLEIK
B1: the values for the FACS signal in experiment [1], in experiment [2] and in experiment [3] were 327000, 176000 and 3640, respectively.
